Data as given in patent US20050203007A1 (REGENTS OF THE UNIVERSITY OF MICHIGAN, published 2005).
Each block holds one binder with its values, some of them ahead of it.

Tests used:
[1] = molecular target: T1, human neutrophil elastase (human, UniProt P08246 30-247); assay: enzyme inhibition, standard assay conditions
T1 sequence (looked up): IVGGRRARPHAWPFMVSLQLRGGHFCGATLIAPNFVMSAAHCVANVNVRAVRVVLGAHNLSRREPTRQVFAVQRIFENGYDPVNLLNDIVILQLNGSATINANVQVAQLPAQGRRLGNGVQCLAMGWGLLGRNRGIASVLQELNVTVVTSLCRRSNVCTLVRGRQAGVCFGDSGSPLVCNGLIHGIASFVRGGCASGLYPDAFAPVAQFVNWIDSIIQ

chymotrypsin = assay: enzyme inhibition, standard assay conditions
subtilisin Carlsberg [2] = molecular target: T2, subtilisin Carlsberg (UniProt P00780 106-379); assay: enzyme inhibition, standard assay conditions
T2 sequence (looked up): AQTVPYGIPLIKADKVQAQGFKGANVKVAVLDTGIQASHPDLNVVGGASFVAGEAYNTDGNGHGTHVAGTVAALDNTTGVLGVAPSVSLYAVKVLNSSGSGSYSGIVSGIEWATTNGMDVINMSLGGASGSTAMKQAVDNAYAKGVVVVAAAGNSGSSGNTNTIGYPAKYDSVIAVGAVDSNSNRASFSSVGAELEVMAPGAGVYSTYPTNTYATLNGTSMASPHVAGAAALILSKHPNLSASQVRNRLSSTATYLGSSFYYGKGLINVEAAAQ

secreted, soluble Kex2 [3] = molecular target: T3, secreted, soluble Kex2 (Saccharomyces cerevisiae, UniProt P13134 114-613, limits assumed); assay: equilibrium enzyme inhibition, fluorogenic substrate
T3 construct: Secreted, soluble construct; also called kexin
T3 sequence (looked up): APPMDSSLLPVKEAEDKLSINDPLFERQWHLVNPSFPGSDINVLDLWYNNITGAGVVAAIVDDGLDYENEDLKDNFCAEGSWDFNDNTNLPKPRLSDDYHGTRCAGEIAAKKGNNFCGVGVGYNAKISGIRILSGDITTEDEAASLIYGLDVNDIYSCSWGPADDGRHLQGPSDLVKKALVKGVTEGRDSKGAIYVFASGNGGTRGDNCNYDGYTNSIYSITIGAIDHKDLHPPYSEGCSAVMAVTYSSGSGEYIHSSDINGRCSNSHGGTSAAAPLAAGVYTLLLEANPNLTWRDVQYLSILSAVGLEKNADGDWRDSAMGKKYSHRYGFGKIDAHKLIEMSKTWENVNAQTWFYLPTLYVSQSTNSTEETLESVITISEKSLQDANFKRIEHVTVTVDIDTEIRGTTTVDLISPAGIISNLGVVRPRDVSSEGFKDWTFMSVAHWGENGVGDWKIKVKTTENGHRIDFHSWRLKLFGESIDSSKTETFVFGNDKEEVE
Procedure: (§1) Affinities of eglin variants with secreted, soluble Kex2 (hereafter “Kex2”; Brenner, C. and Fuller, R. S. (1992) Proc. Natl. Acad. Sci. USA 89: 922-926) and secreted, soluble furin (hereafter, “furin”; Bravo, D. A. et al (1994) J. Biol. Chem. 269: 25830-25837; and Komiyama & Fuller (2000) Biochemistry 39: 15156-15165) were measured by incubating variants with the enzymes (˜0.5 to 2.0 nM) for 45 min to 1 h at 21° C. in one of two enzyme assay buffers. For Kex2, the buffer was 200 mM Bistris (pH 7.27) containing 1 mM CaCl₂ and 0.1% Triton X-100; and for furin, the buffer was 20 mM NaMES (pH 7.0) containing 1 mM CaCl₂ and 0.1% Triton X-100 for furin. 100 to 200 μL aliquots of reaction mixtures were transferred into triplicate wells of opaque 96 well plates (Costar), and residual enzyme activity was measured with an fmax fluorescence micro plate reader (Molecular Devices) by monitoring hydrolysis of a fluorogenic substrate Boc-Arg-Val-Arg-Arg-MCA. Data were graphically analyzed (KaleidaGraph) with an equation developed by Green and Work (1953). Site-directed mutagenesis at P2 and P6 of eglin c generated temporary inhibitors (Table 3) and exhausted possibility to improve affinity further with this approach.

secreted, soluble furin [4] = molecular target: T4, secreted, soluble furin (human, UniProt P09958 108-715, limits assumed); assay: as above
T4 construct: Secreted, soluble construct; also called human furin
Procedure: as §1

secreted, soluble Kex2 [5] = molecular target: T3, secreted, soluble Kex2; assay: equilibrium enzyme inhibition
Procedure: (§2) Thus, R1-eglin refers to substitution of Arg at position P1.
(§3) Affinities of eglin variants with secreted, soluble Kex2 (hereafter “Kex2”; Brenner, C. and Fuller, R. S. (1992) Proc. Natl. Acad. Sci. USA 89: 922-926) and secreted, soluble furin (hereafter, “furin”; Bravo, D. A. et al (1994) J. Biol. Chem. 269: 25830-25837; and Komiyama & Fuller (2000) Biochemistry 39: 15156-15165) were measured by incubating variants with the enzymes (˜0.5 to 2.0 nM) for 45 min to 1 h at 21° C. in one of two enzyme assay buffers. For Kex2, the buffer was 200 mM Bistris (pH 7.27) containing 1 mM CaCl₂ and 0.1% Triton X-100; and for furin, the buffer was 20 mM NaMES (pH 7.0) containing 1 mM CaCl₂ and 0.1% Triton X-100 for furin.

secreted, soluble furin [6] = molecular target: T4, secreted, soluble furin; assay: equilibrium enzyme inhibition
Procedure: as §2, §3

subtilisin Carlsberg [7] = molecular target: T2, subtilisin Carlsberg; assay: enzyme inhibition
trypsin = assay: enzyme inhibition
human plasmin = human plasmin (human, UniProt P00747 97-810, limits assumed); assay: enzyme inhibition; weak inhibition
human plasma kallikrein = human plasma kallikrein (human, UniProt P03952 20-638); assay: enzyme inhibition; weak inhibition
secreted, soluble furin [8] = molecular target: T4, secreted, soluble furin; assay: rapid inhibition assay; listed as potent inhibitor of furin
Procedure: 5. Rapid protease inhibition assay. Novel eglin variants were diluted 50-fold and incubated with secreted, soluble furin (0.5 nM) for 15 min in 96-well plates. The furin substrate (Boc-Arg-Val-Arg-Arg-MCA) was added, and release of AMC was monitored continuously in a 96-well fluorescence plate reader for 20 min, as described under Example 1. […] The plasmid DNA encoding such eglin c variant inhibitors were isolated and sequenced.

secreted, soluble Kex2 [9] = molecular target: T3, secreted, soluble Kex2; assay: enzyme inhibition, purified variant; Kassoc
human PC7 = molecular target: T5, human PC7 (human, UniProt Q16549 142-667, limits assumed); assay: enzyme inhibition, purified variant; Kassoc
T5 sequence (looked up): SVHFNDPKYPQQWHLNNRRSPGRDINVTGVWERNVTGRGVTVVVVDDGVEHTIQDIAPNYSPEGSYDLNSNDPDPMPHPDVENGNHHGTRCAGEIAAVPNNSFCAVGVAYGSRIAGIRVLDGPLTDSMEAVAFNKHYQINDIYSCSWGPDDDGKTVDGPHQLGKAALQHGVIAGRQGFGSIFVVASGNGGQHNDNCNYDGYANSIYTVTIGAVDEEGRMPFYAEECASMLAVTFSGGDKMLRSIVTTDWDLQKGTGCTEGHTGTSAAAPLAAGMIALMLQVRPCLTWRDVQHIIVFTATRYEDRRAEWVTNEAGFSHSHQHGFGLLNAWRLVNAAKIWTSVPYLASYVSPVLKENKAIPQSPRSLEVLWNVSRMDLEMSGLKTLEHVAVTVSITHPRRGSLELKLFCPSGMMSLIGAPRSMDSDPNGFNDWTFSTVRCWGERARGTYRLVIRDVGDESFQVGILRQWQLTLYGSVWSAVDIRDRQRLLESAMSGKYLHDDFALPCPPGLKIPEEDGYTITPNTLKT

secreted, soluble furin [10] = molecular target: T4, secreted, soluble furin; assay: enzyme inhibition, purified variant; Kassoc
secreted, soluble furin [11] = molecular target: T4, secreted, soluble furin; assay: ratio of affinities, enzyme inhibition

T4 sequence (P09958 108-715 limits assumed): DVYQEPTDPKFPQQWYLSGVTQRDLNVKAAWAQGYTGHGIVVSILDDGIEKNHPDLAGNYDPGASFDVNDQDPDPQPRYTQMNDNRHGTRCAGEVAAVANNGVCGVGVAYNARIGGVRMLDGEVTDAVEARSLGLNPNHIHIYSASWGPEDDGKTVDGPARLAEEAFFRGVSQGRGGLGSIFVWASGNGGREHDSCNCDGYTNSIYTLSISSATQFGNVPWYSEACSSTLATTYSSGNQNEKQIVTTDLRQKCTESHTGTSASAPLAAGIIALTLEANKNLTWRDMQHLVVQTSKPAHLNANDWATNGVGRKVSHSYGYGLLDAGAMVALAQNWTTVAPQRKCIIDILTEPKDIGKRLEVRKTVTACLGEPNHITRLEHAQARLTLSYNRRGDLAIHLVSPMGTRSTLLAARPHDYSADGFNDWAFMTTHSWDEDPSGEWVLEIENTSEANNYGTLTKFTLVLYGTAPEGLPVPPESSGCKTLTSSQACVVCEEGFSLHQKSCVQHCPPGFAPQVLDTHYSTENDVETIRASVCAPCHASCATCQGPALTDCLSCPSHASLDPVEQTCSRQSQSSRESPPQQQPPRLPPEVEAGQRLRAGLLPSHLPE
Chain of human plasma kallikrein (P03952 20-638 limits assumed): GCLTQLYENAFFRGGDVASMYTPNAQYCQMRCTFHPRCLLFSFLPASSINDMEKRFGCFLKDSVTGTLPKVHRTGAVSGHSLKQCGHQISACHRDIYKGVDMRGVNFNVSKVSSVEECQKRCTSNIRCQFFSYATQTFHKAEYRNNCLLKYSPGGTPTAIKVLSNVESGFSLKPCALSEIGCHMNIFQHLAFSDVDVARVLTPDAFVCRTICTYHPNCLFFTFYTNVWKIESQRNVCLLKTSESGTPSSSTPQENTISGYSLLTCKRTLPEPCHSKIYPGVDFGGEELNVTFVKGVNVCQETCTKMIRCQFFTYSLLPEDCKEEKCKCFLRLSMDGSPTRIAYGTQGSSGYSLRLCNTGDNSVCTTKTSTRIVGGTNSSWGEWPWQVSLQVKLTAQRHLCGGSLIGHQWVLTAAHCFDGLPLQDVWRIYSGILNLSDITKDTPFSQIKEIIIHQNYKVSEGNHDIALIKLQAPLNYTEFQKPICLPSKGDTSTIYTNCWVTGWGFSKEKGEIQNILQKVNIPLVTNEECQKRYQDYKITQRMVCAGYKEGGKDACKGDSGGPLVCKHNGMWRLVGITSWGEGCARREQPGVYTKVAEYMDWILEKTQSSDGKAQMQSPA
Chain of human plasmin (P00747 97-810 limits assumed): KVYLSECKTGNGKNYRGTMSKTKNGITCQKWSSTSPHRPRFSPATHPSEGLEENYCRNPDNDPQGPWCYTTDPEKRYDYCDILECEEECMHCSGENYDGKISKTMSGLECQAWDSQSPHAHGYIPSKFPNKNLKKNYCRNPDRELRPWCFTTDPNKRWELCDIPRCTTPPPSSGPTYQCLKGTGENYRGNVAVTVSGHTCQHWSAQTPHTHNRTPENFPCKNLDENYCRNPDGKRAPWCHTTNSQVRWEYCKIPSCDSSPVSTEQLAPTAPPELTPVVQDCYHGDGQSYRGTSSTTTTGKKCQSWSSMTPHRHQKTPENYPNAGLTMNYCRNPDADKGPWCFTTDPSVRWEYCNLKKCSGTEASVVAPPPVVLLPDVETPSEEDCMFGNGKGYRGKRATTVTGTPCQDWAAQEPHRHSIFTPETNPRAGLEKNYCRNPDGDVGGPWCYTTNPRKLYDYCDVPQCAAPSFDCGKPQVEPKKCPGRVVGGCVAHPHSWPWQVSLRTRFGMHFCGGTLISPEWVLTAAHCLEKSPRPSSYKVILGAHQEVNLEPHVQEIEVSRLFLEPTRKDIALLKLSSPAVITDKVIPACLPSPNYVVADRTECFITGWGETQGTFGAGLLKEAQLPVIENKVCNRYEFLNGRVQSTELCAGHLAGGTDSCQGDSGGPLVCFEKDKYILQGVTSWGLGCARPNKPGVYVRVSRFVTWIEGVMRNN
Chain of trypsin (P00760 24-246): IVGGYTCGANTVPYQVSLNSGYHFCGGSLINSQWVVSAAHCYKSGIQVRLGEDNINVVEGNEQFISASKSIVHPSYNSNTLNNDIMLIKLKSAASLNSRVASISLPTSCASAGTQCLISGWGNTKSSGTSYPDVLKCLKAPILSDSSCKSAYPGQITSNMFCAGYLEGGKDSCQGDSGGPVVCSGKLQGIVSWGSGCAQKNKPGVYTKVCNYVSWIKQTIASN

binding result (secreted, soluble furin [8]): binds
B3: Pro38Leu Tyr49Cys R4R1-eglin (designed binder)
chain: SMGSELKSFPEVVGKTVDQAREYFTLHYPQYDVYFLLEGSRVTRDLRCNRVRVFYNPGTNVVNHVPHVG
notes: tested as partially purified extract

Ka (secreted, soluble Kex2 [9]): 2.4e+10 M⁻¹
Ka (human PC7): 8.7e+07 M⁻¹
Ka (secreted, soluble furin [10]): 3.7e+09 M⁻¹
fold preference for furin over PC7 (secreted, soluble furin [11]): 42 fold
B4: V33D49-R4R1-eglin (designed binder)
chain: SMGSELKSFPEVVGKTVDQAREYFTLHYPQYVVYFLPEGSRVTRDLRDNRVRVFYNPGTNVVNHVPHVG
notes: N-terminal Met removed; also called Asp49Val33-R4R1-eglin-c

Continued, binder first:

B1: L1-eglin (other)
chain: SMGSELKSFPEVVGKTVDQAREYFTLHYPQYDVYFLPEGSPVTLDLRYNRVRVFYNPGTNVVNHVPHVG
notes: Recombinant eglin with the natural reactive site loop; also called wild type eglin; wild type eglin (Leu45)
Ka [1]: 4.5e+10 M⁻¹
Ka (chymotrypsin): 1.1e+10 M⁻¹
Ka (subtilisin Carlsberg [2]): 6.7e+10 M⁻¹
Ki (secreted, soluble Kex2 [3]): ~500 µM
Ki (secreted, soluble furin [4]): 120 µM

B2: R1-eglin (designed binder)
chain: SMGSELKSFPEVVGKTVDQAREYFTLHYPQYDVYFLPEGSPVTRDLRYNRVRVFYNPGTNVVNHVPHVG
notes: also called Arg45-eglin c
fold increase in affinity relative to L1-eglin (secreted, soluble Kex2 [5]): 10000 fold
fold enhancement of affinity relative to L1-eglin (secreted, soluble furin [6]): 2 to 3 fold
fold increase in affinity relative to L1-eglin (secreted, soluble furin [6]): 2.5 fold
Ka (subtilisin Carlsberg [7]): 1e+10 M⁻¹
Ka (trypsin): 1.8e+10 M⁻¹
Ka (human plasmin): ~1e+06 M⁻¹
Ka (human plasma kallikrein): ~1e+06 M⁻¹
Ki (secreted, soluble Kex2 [3]): 0.03 µM
Ki (secreted, soluble furin [4]): 53 µM
